Four proteins from paper doi:10.1101/2025.05.15.654344 (bioRxiv, 2025) can be followed below.

By stoichiometry N is commonly meant a count of units in the complex or per binding partner.

B1: D-dopachrome tautomerase (D-DT or MIF-2), wild type (natural protein, human, UniProt P30046 1-118, looked up)
chain: MPFLELDTNLPANRVPAGLEKRLCAAAASILGKPADRVNVTVRPGLAMALSGSTEPCAQLSISSIGVVGTAEDNRSHSAHFFEFLTKELALGQDRILIRFFPLESWQIGKIGTVMTFL
B2: MIF-2 C56S variant (natural protein, human, UniProt P30046 1-118, looked up)
chain: MPFLELDTNLPANRVPAGLEKRLCAAAASILGKPADRVNVTVRPGLAMALSGSTEPSAQLSISSIGVVGTAEDNRSHSAHFFEFLTKELALGQDRILIRFFPLESWQIGKIGTVMTFL
B3: WT MIF-2 bound to Ebselen (Cys23 covalently modified) (natural protein, human, UniProt P30046 1-118, looked up)
chain: MPFLELDTNLPANRVPAGLEKRLCAAAASILGKPADRVNVTVRPGLAMALSGSTEPCAQLSISSIGVVGTAEDNRSHSAHFFEFLTKELALGQDRILIRFFPLESWQIGKIGTVMTFL
modifications: Cys23 covalently modified by Ebselen
B4: C56S MIF-2 bound to Ebselen (Cys23 covalently modified) (natural protein, human, UniProt P30046 1-118, looked up)
chain: MPFLELDTNLPANRVPAGLEKRLCAAAASILGKPADRVNVTVRPGLAMALSGSTEPSAQLSISSIGVVGTAEDNRSHSAHFFEFLTKELALGQDRILIRFFPLESWQIGKIGTVMTFL
modifications: Cys23 covalently modified by Ebselen

This data set concerns the molecule itself. The data set is described as follows: NMR spin relaxation.
For B1, the “stoichiometry N” value is 3.
On to B2, for which the “stoichiometry N” value was determined as 3.
Under B3 stands 3; under B4, 3.
